Reference: the supplement of paper PMC10567573

B1: FUNDC2 (parent)
chain: YIKVDWQRVEKDMKKAKEQLKIRK
B2: NEK8 (parent)
chain: VTIKHVACGDFFTACLTDRGIIMT

Variants of: B1
Test: protein stability index of a GFP-peptide fusion (GPS, HEK-293T) (PSI 1-6); higher = more stable
Conditions: c terminus: a fixed tail appended
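Note: lentivirally expressed fusions sorted by FACS into six bins by GFP to DsRed ratio, PSI derived from sequencing read proportions per bin multiplied by bin number.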

Row | Variant | protein stability index
1 | YIKVAWQRVEKDMKKAKEQLKIRK [D5A] | 3.55
2 | YIKVCWQRVEKDMKKAKEQLKIRK [D5C] | 1.03
3 | YIKVPWQRVEKDMKKAKEQLKIRK [D5P] | 2.21
4 | YIKVWWQRVEKDMKKAKEQLKIRK [D5W] | 3.34
5 | YIKVLWQRVEKDMKKAKEQLKIRK [D5L] | 2.48
6 | YIKVEWQRVEKDMKKAKEQLKIRK [D5E] | 1.52
7 | YIKVMWQRVEKDMKKAKEQLKIRK [D5M] | 2.46
8 | YIKVDWQRVEADMKKAKEQLKIRK [K11A] | 2.37
9 | YIKVDWQRVESDMKKAKEQLKIRK [K11S] | 1.97
10 | YIKVDWQRVERDMKKAKEQLKIRK [K11R] | 2.09
11 | YIKVDWQRVEYDMKKAKEQLKIRK [K11Y] | 1.55
12 | YIKVDWQRVEIDMKKAKEQLKIRK [K11I] | 1.78
13 | YIKVDWQRVECDMKKAKEQLKIRK [K11C] | 1.53
14 | YIKYDWQRVEKDMKKAKEQLKIRK [V4Y] | 2.4
15 | YIKEDWQRVEKDMKKAKEQLKIRK [V4E] | 1.81
16 | YIKLDWQRVEKDMKKAKEQLKIRK [V4L] | 2.23
17 | YIKQDWQRVEKDMKKAKEQLKIRK [V4Q] | 1.83
18 | YIKNDWQRVEKDMKKAKEQLKIRK [V4N] | 2.13
19 | YIKTDWQRVEKDMKKAKEQLKIRK [V4T] | 1.71
20 | YIKVDWQRVEKDMKKAKEQGKIRK [L20G] | 1.89
21 | YIKVDWQRVEKDMKKAKEQAKIRK [L20A] | 2.3
22 | YIKVDWQRVEKDMKKAKEQKKIRK [L20K] | 1.59
23 | YIKVDWQRVEKDMKKAKEQIKIRK [L20I] | 2.42

Row | Variant | protein stability index
24 | YIKVDWQRVEKDMKKAKEQYKIRK [L20Y] | 1.91
25 | YIKVDWQRVEKDMKKAKEQSKIRK [L20S] | 1.52
26 | YIKVDWQRVEKDMKKAKEQDKIRK [L20D] | 1.77
27 | YIKVDWQRVEKDMKKAKEQPKIRK [L20P] | 1.95
28 | YIKVDWQRVEKDMKKAKEQMKIRK [L20M] | 1.32
29 | YIKVDWQRVEKDMKKAKEQNKIRK [L20N] | 1.49
30 | YIKVDWQRVEKDMKKAKEQTKIRK [L20T] | 2.62
31 | YIKVDWQRVTKDMKKAKEQLKIRK [E10T] | 2.36
32 | YIKVDWQRVVKDMKKAKEQLKIRK [E10V] | 1.52
33 | YIKVDWQRVRKDMKKAKEQLKIRK [E10R] | 1.27
34 | YIKVDWQRVMKDMKKAKEQLKIRK [E10M] | 1.73
35 | YIKVDWQRVPKDMKKAKEQLKIRK [E10P] | 1.77
36 | YIKVDWQRVAKDMKKAKEQLKIRK [E10A] | 1.92
37 | YIKVDWQRVQKDMKKAKEQLKIRK [E10Q] | 1.36
38 | YIKVDWQRVEKDMKKAKEQLEIRK [K21E] | 2.28
39 | YIKVDWQRVEKDMKKAKEQLIIRK [K21I] | 1.68
40 | YIKVDWQRVEKDMKKAKEQLHIRK [K21H] | 1.74
41 | YIKVDWQRVEKDMKKAKEQLMIRK [K21M] | 1.96
42 | YIKVDWQRVEKDMKKAKEQLTIRK [K21T] | 1.87
43 | YIKVDWQRVEKDMKKAKEQLAIRK [K21A] | 1.87
44 | YIKVDWQRVEKDMKKAKEQLVIRK [K21V] | 2.19
45 | YIKVDWQRVEKDMKKAKEQLRIRK [K21R] | 2
46 | YIKVDWQRVEKDMKKAKEQLYIRK [K21Y] | 2.5

Row | Variant | protein stability index
47 | YIKVDWDRVEKDMKKAKEQLKIRK [Q7D] | 1.49
48 | YIKVDWNRVEKDMKKAKEQLKIRK [Q7N] | 2.47
49 | YIKVDWTRVEKDMKKAKEQLKIRK [Q7T] | 1.73
50 | YIKVDWCRVEKDMKKAKEQLKIRK [Q7C] | 2.41
51 | YIKVDWLRVEKDMKKAKEQLKIRK [Q7L] | 2.01
52 | YIKVDWVRVEKDMKKAKEQLKIRK [Q7V] | 2.33
53 | YIKVDWHRVEKDMKKAKEQLKIRK [Q7H] | 1.45
54 | YIKVDWQRVEKDMKKYKEQLKIRK [A16Y] | 1.98
55 | YIKVDWQRVEKDMKKKKEQLKIRK [A16K] | 1.83
56 | YIKVDWQRVEKDMKKCKEQLKIRK [A16C] | 2.08
57 | YIKVDWQRVEKDMKKWKEQLKIRK [A16W] | 1.94
58 | YIKVDWQRVEKDMKKHKEQLKIRK [A16H] | 2.4
59 | YIKVDWQRVEKDMKKLKEQLKIRK [A16L] | 1.95
60 | YIKVDWQRVEKDMKKDKEQLKIRK [A16D] | 1.78
61 | YIKVDWQRVEKDMKKIKEQLKIRK [A16I] | 2.06
62 | YIKVDWQRVEKDMKKMKEQLKIRK [A16M] | 1.85
63 | YIKVDWQRVEKDMKKFKEQLKIRK [A16F] | 2.16
64 | YIKVDWQRVEKDTKKAKEQLKIRK [M13T] | 1.4
65 | YIKVDWQRVEKDKKKAKEQLKIRK [M13K] | 1.92
66 | YIKVDWQRVEKDEKKAKEQLKIRK [M13E] | 1.87
67 | YIKVDWQRVEKDNKKAKEQLKIRK [M13N] | 2.3
68 | YIKVDWQRVEKDYKKAKEQLKIRK [M13Y] | 2.14
69 | YIKVDWQRVEKDRKKAKEQLKIRK [M13R] | 2.29

Row | Variant | protein stability index
70 | YIKVDWQRVEKDPKKAKEQLKIRK [M13P] | 1.17
71 | YIKVDWQRVEKDMKKAKELLKIRK [Q19L] | 2.43
72 | YIKVDWQRVEKDMKKAKEELKIRK [Q19E] | 2.68
73 | YIKVDWQRVEKDMKKAKESLKIRK [Q19S] | 2.04
74 | YIKVDWQRVEKDMKKAKEYLKIRK [Q19Y] | 1.8
75 | YIKVDWQRVEKDMKKAKETLKIRK [Q19T] | 2.8
76 | YIKVDWQRVEKDMKKAKEFLKIRK [Q19F] | 1.56
77 | YIKVDWQRVEKDMKKAKRQLKIRK [E18R] | 1.57
78 | YIKVDWQRVEKDMKKAKFQLKIRK [E18F] | 1.65
79 | YIKVDWQRVEKDMKKAKMQLKIRK [E18M] | 1.59
80 | YIKVDWQRVEKDMKKAKIQLKIRK [E18I] | 2.41
81 | YIKVDWQRVEKDMKKAKSQLKIRK [E18S] | 2.46
82 | YIKVDWQRVEKDMKKAKEQLKLRK [I22L] | 2.12
83 | YIKVDWQRVEKDMKKAKEQLKWRK [I22W] | 2.11
84 | YIKVDWQRVEKDMKKAKEQLKRRK [I22R] | 1.29
85 | YIKVDWQRVEKDMKKAKEQLKGRK [I22G] | 1.83
86 | YIKVDWQRVEKDMKKAKEQLKKRK [I22K] | 2.25
87 | YIKVDWQRVEKDMKKAKEQLKDRK [I22D] | 1.92
88 | YIKVDWQRVEKDMKKAKEQLKMRK [I22M] | 1.97
89 | YIKVDWQRVEKDMKKAKEQLKPRK [I22P] | 1.49

Variants of: B2
Test: as above
Conditions: c terminus: a fixed tail appended

Row | Variant | protein stability index
90 | CTIKHVACGDFFTACLTDRGIIMT [V1C] | 2.23
91 | GTIKHVACGDFFTACLTDRGIIMT [V1G] | 3.39
92 | FTIKHVACGDFFTACLTDRGIIMT [V1F] | 1.99
93 | ETIKHVACGDFFTACLTDRGIIMT [V1E] | 1.45
94 | ATIKHVACGDFFTACLTDRGIIMT [V1A] | 2.57
